From publication PMC7244319

Key:
GST-mLysRS = GST-mLysRS (Mus musculus, UniProt Q99MN1 1-595); experiment: streptavidin pull-down
GST-cGAS (human) = GST-cGAS (human) (Homo sapiens, UniProt Q8N884 1-522); experiment: streptavidin pull-down, WB quantification
GST-LysRS (human) = GST-LysRS (human) (Homo sapiens, UniProt Q15046 1-597); experiment: streptavidin pull-down, WB quantification
GST-LysRS (human), sequence (Q15046 whole entry): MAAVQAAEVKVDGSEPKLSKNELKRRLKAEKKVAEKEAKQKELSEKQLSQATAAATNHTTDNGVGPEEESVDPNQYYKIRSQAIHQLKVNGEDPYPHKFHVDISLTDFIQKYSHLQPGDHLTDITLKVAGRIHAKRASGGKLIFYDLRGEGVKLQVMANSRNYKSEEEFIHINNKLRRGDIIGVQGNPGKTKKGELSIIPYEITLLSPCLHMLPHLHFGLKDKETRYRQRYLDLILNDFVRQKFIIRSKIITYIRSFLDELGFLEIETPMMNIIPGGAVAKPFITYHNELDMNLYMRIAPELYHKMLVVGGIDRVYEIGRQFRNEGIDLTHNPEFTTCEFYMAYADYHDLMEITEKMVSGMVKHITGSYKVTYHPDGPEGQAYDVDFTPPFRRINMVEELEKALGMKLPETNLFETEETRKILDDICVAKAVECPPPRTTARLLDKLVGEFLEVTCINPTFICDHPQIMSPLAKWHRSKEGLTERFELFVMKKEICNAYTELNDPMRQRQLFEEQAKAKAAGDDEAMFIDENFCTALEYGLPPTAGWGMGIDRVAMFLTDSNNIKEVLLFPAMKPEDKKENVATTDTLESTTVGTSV

GST-mLysRS, sequence (Q99MN1 whole entry): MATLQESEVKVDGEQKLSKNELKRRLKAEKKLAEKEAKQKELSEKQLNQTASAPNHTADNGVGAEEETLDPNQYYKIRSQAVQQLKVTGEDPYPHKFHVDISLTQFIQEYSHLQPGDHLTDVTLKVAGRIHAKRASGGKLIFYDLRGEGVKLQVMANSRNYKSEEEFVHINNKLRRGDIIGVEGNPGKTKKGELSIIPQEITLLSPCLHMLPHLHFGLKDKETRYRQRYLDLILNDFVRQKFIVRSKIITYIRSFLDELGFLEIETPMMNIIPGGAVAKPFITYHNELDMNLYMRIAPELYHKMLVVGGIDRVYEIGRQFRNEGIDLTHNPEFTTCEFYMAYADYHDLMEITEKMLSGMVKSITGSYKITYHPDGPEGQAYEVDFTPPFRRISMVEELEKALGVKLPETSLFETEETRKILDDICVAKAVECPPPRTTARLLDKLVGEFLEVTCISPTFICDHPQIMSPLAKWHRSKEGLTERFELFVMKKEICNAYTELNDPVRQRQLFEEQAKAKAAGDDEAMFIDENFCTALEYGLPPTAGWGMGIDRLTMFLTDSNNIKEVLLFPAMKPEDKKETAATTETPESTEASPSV
GST-cGAS (human), sequence (Q8N884 whole entry): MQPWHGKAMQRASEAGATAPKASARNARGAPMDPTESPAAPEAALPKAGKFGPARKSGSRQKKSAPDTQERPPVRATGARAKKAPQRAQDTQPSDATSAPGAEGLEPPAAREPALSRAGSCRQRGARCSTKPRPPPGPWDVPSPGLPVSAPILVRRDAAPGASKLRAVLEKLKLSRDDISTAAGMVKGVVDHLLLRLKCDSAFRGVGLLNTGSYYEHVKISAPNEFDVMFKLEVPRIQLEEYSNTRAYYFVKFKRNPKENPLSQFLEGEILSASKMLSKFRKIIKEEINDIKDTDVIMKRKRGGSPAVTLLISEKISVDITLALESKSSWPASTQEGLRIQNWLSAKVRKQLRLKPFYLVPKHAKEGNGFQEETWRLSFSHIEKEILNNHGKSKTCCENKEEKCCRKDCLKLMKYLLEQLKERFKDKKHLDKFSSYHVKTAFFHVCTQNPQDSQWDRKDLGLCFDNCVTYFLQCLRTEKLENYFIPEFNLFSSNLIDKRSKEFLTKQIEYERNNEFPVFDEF

B1: BRNA:DNA hybrid (BRNA 2/DNA 9) (DNA:RNA)
RNA: UUUCAAUUCCUUUUAGGAUUAAUCUUGAAGAUAGAGUUAA
DNA: TTAACTCTATCTTCAAGATTAATCCTAAAAGGAATTGAAA
GST-mLysRS
  binding result: binds
GST-cGAS (human)
  Kd: ~8.05 nM
GST-LysRS (human)
  Kd: ~11.3 nM
